Values joined by “and” are separate entries in the source; they are usually repeats but may differ in a detail not shown here. Identical values can stand only once.
B1: WRN fragment WRN(1151-1432) (domain or fragment, human, UniProt Q14191 1151-1432, looked up)
chain: ETQIVLYGKLVEARQKHANKMDVPPAILATNKILVDMAKMRPTTVENVKRIDGVSEGKAAMLAPLLEVIKHFCQTNSVQTDLFSSTKPQEEQKTSLVAKNKICTLSQSMAITYSLFQEKKMPLKSIAESRILPLMTIGMHLSQAVKAGCPLDLERAGLTPEVQKIIADVIRNPPVNSDMSKISLIRMLVPENIDTYLIHMAIEILKHGPDSGLQPSCDVNKRRCFPGSEEICSSSKRSKEEVGINTETSSAERKRRLPVWFAKGSDTSKKLMDKTKRGGLFS
B2: WRN C-terminal fragment WRN(1072-1432) (domain or fragment, human, UniProt Q14191 1072-1432, looked up)
chain: KKLLLPSSKTVSSGTKEHCYNQVPVELSTEKKSNLEKLYSYKPCDKISSGSNISKKSIMVQSPEKAYSSSQPVISAQEQETQIVLYGKLVEARQKHANKMDVPPAILATNKILVDMAKMRPTTVENVKRIDGVSEGKAAMLAPLLEVIKHFCQTNSVQTDLFSSTKPQEEQKTSLVAKNKICTLSQSMAITYSLFQEKKMPLKSIAESRILPLMTIGMHLSQAVKAGCPLDLERAGLTPEVQKIIADVIRNPPVNSDMSKISLIRMLVPENIDTYLIHMAIEILKHGPDSGLQPSCDVNKRRCFPGSEEICSSSKRSKEEVGINTETSSAERKRRLPVWFAKGSDTSKKLMDKTKRGGLFS

Molecular target: the molecule itself
Assay: SEC

| Protein | stoichiometry N |
| --- | --- |
| B1 | 3 |
| B2 | 6 and 3 |

Source: paper PMC4586260 (Biochemistry, 2008)
